B1: Bromodomain adjacent to zinc finger domain protein 2B, residues 1927 to 1982; numbered along this chain, Q9UIF8 (parent)
chain: KSIMKVYCQICRKGDNEELLLLCDGCDKGCHTYCHRPKITTIPDGDWFCPACIAKA

Variants of: B1
Assay: abundance fitness (aPCA) (normalised: wild type 0, dead -1); higher = more abundant; growth selection in yeast, the domain comes from the species named
Settings: Homo sapiens

Abundance fitness, by site and new letter:
G29: S -0.019; M -0.279; Q -0.053; P -0.321; N -0.013; D -0.378; R -0.075; F -0.035; V 0.002
A56: C -0.211; Q -0.176; V 0.045
M4: I -0.068; V -0.138; C -0.054; P -0.183; Q -0.065
E17: H -0.34; P 0.085; K 0.172; L -0.008; Q 0.103; G 0.022; R 0.072; F -0.363; T -0.069
N16: C -0.081; M -0.165; S -0.008; H 0
P43: G -0.016; S 0.053; R -0.083; V -0.127; Q 0.024; I 0.092; A -0.006; M -0.269; D -0.071; N -0.245
D24: H -0.063; P -0.05; L -0.034; K -0.005; Q 0.08; S 0.053
H35: R -0.137; K 0.024; M 0.002; A 0.021; C -0.084; E -0.169
K13: V -0.138; S -0.11; W -0.25; F -0.24
Y33: P -0.323; W -0.178; H -0.111; E -0.058; D -0.123; L -0.202; C -0.289
I3: Q 0.104; H -0.144; A 0.014; S -0.052
H31: A -0.683; T -0.446; M -0.71; I -0.817; R -0.601; P -0.556; G -0.471; D -0.386; W -0.856
Q9: M -0.096; L -0.103; W -0.203
S2: F -0.155; N -0.506; H 0.085; C -0.181; G 0.065; Q -0.073; D 0.061; I 0.051
C49: G -0.788; F -1.04; K -0.83; H -0.333; I -0.859
I53: E 0.016; H -0.083; W -0.179; T -0.225; Y -0.026; S -0.033; M 0.021
G14: L -0.056; D -0.056; E -0.07; C -0.171; A 0.011
G45: A -0.154
C30: T 0.039; G -0.009; H -0.016; S -0.011; N -0.208; D -0.238; K -0.076; W 0.031
C34: T -0.694; M -0.672; Q -0.731; V -0.771; N -0.818
A51: I -0.14; M 0.022; G 0.033; V -0.095; N -0.064; Q -0.169
A54: N -0.136; I -0.265; D -0.062; E 0.113; P 0.048; Q 0.066; M -0.309
D27: C -0.187; A -0.112; R -0.127; M -0.128; K -0.001
L19: N 0.027; K -0.016; E -0.012; C -0.071; P -0.08; Q 0.137
D15: I -0.221; N -0.008; W -0.279; F -0.118; R -0.263; H -0.429; K -0.038; T -0.22; E 0.113
K38: F -0.147; V -0.104; I -0.071
F48: M -0.01; P -0.132; Q -0.04; I 0.07; S 0.037; T 0.008
C11: E -0.808; G -1.1; R -0.933; S -0.997; W -1.21; N -1.04; F -0.961; A -1.03
K28: A -0.085; Y -0.035; S -0.089; H 0.04; F 0.094; I -0.329; D -0.055; L -0.025; T -0.026
V6: Q -0.043; R 0.036; T -0.028; H -0.036
G25: K -0.031; Y -0.221; W -0.251; A -0.171; T -0.09; Q 0.003; D -0.192
C52: E -0.581; Y -0.666; W -0.971; D -0.43; T -0.539; G -0.544; P -0.833; V -0.905
K1: S -0.176; T -0.155; E -0.035
C26: D -0.676; F -0.969; G -0.572; K -0.744; W -0.931
L21: D -0.346; W -0.248; N -0.206; A -0.117; P -0.524; G -0.224
I39: A -0.068; T -0.124; G -0.1; P -0.266; K -0.111
T40: H -0.128; P 0.031; F -0.015; R -0.043; Y -0.11; M -0.024; L -0.049; I -0.123
K55: G 0.058; C -0.154
R12: Y -0.183; M -0.05; A 0.008; I 0.001; W -0.256; F -0.23; Q -0.041
K5: P -0.198; F -0.444; S -0.019; W -0.303; M -0.083; A -0.158; E -0.156; D -0.162; T -0.056; R -0.095
T32: K -0.156; Y -0.019; L 0.026; W -0.141; C -0.333; I 0.004; Q -0.131
D44: P 0.048; Y -0.222; L -0.085; E -0.206; N 0.111; S -0.031
L22: C 0.008; E 0.029; N -0.051; I -0.054; V -0.034; A 0.032
D46: V -0.046; Q 0.117; A -0.146; N -0.009; C -0.06; K 0.033; G -0.031; W -0.582; F -0.334; L -0.233; M -0.218; I -0.305; E 0.028
E18: I -0.376; F -0.124; H 0.042; Y -0.188
R36: S 0.065; F -0.154; I -0.175; P -0.078; A -0.007; D -0.03; H 0.021
I42: H -0.235; S -0.065; V -0.039; D -0.209; M 0.049; E 0.069
T41: G 0.001; E 0.023; M -0.108; D -0.085; Y -0.217; C -0.09
P50: A -0.074
I10: G -0.148; Q -0.009; F -0.181; C 0.089; N 0.266; L 0.004; E 0.095
L20: F 0.058; V -0.069; T -0.094; E -0.34; S -0.308; C -0.011
Y7: A -0.09; S -0.025; V -0.145; Q -0.043; M -0.059; P -0.179; F -0.086
P37: T -0.148; R -0.227; H -0.188; C -0.32; E 0.026; D -0.195
W47: Y -0.165; T -0.213; C -0.287; N -0.186; V -0.338
C8: L -1.13; Y -0.942; A -1.25; Q -0.661; H -1.02

From the Human Domainome abundance scans (Beltran et al. 2025)
